Data: the supplement of paper PMC11865577

Columns and labels:
Test in all cases: pull-down binding Z-score (relative to library population); higher = stronger binding
Conditions in all cases: RNA library: Library-2
TO-N3 (biotin conjugate) = system: TO-N3 (biotin conjugate)
Summary of the method: (§1)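 Cy5- or Cy3-end-labelled RNA library (1 μg) was heat-folded in phosphate/NaCl/KCl buffer and incubated 60 min at 25 °C with streptavidin beads carrying 100 pmol biotin-conjugated small molecule. After three washes, bound RNA was eluted in hot SDS and hybridised 20 h at 55.5 °C to a DNA barcode microarray. Binding was scored by subtracting a beads-only control, averaging barcoded replicate probes after dropping highest and lowest, and converting to a Z-score against library mean and standard deviation.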

[1] = system: TO-N3-2 (biotin conjugate)
Summary of the method: as §1

[2] = system: TO-3-N3 (biotin conjugate)
Summary of the method: as §1

[3] = system: TO-3-N3-2 (biotin conjugate)
Summary of the method: as §1

Row | Sequence | pull-down binding Z-score (TO-N3 (biotin conjugate)) | pull-down binding Z-score [1] | pull-down binding Z-score [2] | pull-down binding Z-score [3]
1 | ACAGGUUUUAUCGAACCUGU [IAV_invivo_PB1_2_Motif_25+IAV_invivo_PB1_2_Motif_25] | -0.828 | -1.54 | -0.147 | -0.571
2 | ACAGUAUGUCUUUUGUACUGU | -0.525 | -1.28 | -0.159 | -0.336
3 | ACAGUCUGUACCGUCUGCGGUAUGUGGAAAGGUUAUGGCUGU | -0.273 | 0.213 | -0.239 | -0.231
4 | ACAUACUAGGACCUCUUUCUGCUCAAACUGGAAUUGCCGUUUUAGAUAUGU [DMSMaPseq_invitro_SARS-CoV-2_Motif_193] | -0.989 | -0.421 | -0.933 | -0.407
5 | ACAUAGCAGUGGUGUUACCCGUGAACUCAUGCGUGAGCUUAACGGAGGGGCAUACACUCGCUAUGU | -0.015 | 0.0437 | -0.138 | -0.167
6 | ACAUCAGCUUGUGUUUUGGCUGCUGAAUGU | -0.774 | -0.485 | -0.623 | -0.534
7 | ACAUCUCUGGCAUUAAUGCUUCAGUUGU [SHAPE_invivo_SARS-CoV-2_Motif_471] | -1.33 | -1.06 | -1.08 | -0.583
8 | ACAUGCCAAUUUAGAUUCUUGCAAAAGAGUCUUGAACGUGGUGUGU | -1.48 | -1.62 | -1.07 | -0.712
9 | ACAUUACACCAUGU [SHAPE_invivo_SARS-CoV-2_Motif_439] | -1.07 | -0.865 | -0.779 | -0.6
10 | ACAUUAGAUAAUCAAGAUCUCAAUGGUAACUGGUAUGAUUUCGGUGAUUUCAUACAAACCACGCCAGGUAGUGGAGUUCCUGUUGUAGAUUCUUAUUAUUCAUUGU | 0.235 | 0.46 | -0.0358 | 0.102
11 | ACAUUUUAUCUUACUAAUGAUGU [SHAPE_invivo_SARS-CoV-2_Motif_191] | -0.428 | -1.3 | -0.182 | -0.249
12 | ACCAACCACCACAAACCUCUAUCACCUCAGCUGUUUUGCAGAGUGGUUUUAGAAAAAUGGCAUUCCCAUCUGGU | 0.386 | 0.456 | 0.0884 | 0.384
13 | ACCAAUGUGCUAUGAGGCCCAAUUUCACUAUUAAGGGUUCAUUCCUUAAUGGUUCAUGUGGUAGUGUUGGU [SHAPE_invivo_SARS-CoV-2_Multi_27_ComplexLevel_1] | -0.295 | -0.569 | -0.261 | -0.186
14 | ACCACCAAUUAAAGAUUUUGGUGGU [SHAPE_invitro_SARS-CoV-2_Motif_434] | -0.123 | -1.4 | 0.206 | -0.49
15 | ACCAGGAGUUUUCUGUGGUGUAGAUGCUGUAAAUUUACUUACUAAUAUGUUUACACCACUAAUUCAACCUAUUGGU [SHAPE_invitro_SARS-CoV-2_Motif_181] | -0.0352 | -0.878 | -0.0454 | -0.13
16 | ACCAGUUAACUGGU [SHAPE_invitro_SARS-CoV-2_Motif_121] | -1.1 | -1.19 | -0.713 | -0.55
17 | ACCAUUCUUCGUAAGGGUGGU | -0.223 | -0.847 | -0.172 | -0.207

Row | Sequence | pull-down binding Z-score (TO-N3 (biotin conjugate)) | pull-down binding Z-score [1] | pull-down binding Z-score [2] | pull-down binding Z-score [3]
18 | ACCAUUGGUAGAUUUGCCAAUAGGU | -0.966 | -1.45 | -0.133 | -0.848
19 | ACCAUUUAAUGAUGGU [DMSMaPseq_invitro_SARS-CoV-2_Motif_383] | -1.21 | -1.7 | -0.648 | -0.365
20 | ACCCUCAAAAAGAGAUGGCAACUAGCACUCUCCAAGGGU | 0.0275 | -0.427 | 0.217 | 0.0435
21 | ACCGGUGGAAUUGCUAUCGCAAUGGCUUGUCUUGUAGGCUUGAUGUGGCUCAGCUACUUCAUUGCUUCUUUCAGACUGUUUGCGCGUACGCGUUCCAUGUGGU | 1.07 | 0.838 | 1.2 | 0.131
22 | ACCUAAAUAGAGGU | -1.22 | -1.63 | -0.82 | -0.686
23 | ACCUCGUCUAUGCUUUAAGGCAUUUUGAUGAAGGU | -0.152 | -0.876 | 0.13 | -0.357
24 | ACCUGCUCAGUAUGAACUUAAGCAUGGU | -0.561 | -0.0122 | -0.339 | -0.184
25 | ACCUUGAAGGAAAACAGGGU | 0.58 | -0.135 | 0.525 | 0.457
26 | ACCUUUAAUUGAAUUGUGCGUGGAUGAGGCUGGUUCUAAAUCACCCAUUCAGUACAUCGAUAUCGGU [SHAPE_invivo_SARS-CoV-2_Motif_532] | -1.07 | -0.962 | -0.881 | -0.862
27 | ACCUUUAGUACCUUUCUGGAUAACAAUUGCUUAUAUCAUUUGUAUUUCCACAAAGCAUUUCUAUUGGU | 0.513 | -0.25 | 0.707 | -0.225
28 | ACGACGACUACUAGCGUGCCUUUGUAAGCACAAGCUGAUGAGUACGAACUUAUGUACUCAUUCGUUUCGGAAGAGACAGGUACGUUAAUAGUUAAUAGCGU | -0.304 | -0.217 | -0.319 | -0.333
29 | ACGUACUGCCACUAAAGCAUACAAUGUAACACAAGCUUUCGGCAGACGU | 0.464 | 0.871 | 0.386 | 0.565
30 | ACGUGAGUCUUGUAAAACCUUCUUUUUACGUUUACUCUCGU | 0.206 | -0.213 | 0.0863 | 0.0619
31 | ACGUGGCUUUGGAGACUCCGUGGAGGAGGUCUUAUCAGAGGCACGU | 0.0366 | 0.34 | -0.105 | 0.0243
32 | ACUAAAAAUGU [SHAPE_invitro_SARS-CoV-2_Motif_381] | -0.167 | -0.642 | 0.184 | -0.343
33 | ACUAAAAUAAAACCUCAUAAUUCACAUGAAGGUAAAACAUUUUAUGUUUUACCUAAUGAUGACACUCUACGUGUUGAGGCUUUUGAGU [DMSMaPseq_invitro_SARS-CoV-2_Multi_18_ComplexLevel_1] | -1.12 | -1.02 | -0.89 | -0.146
